Test results published in doi:10.1101/2022.07.22.501112, “An unexpected histone chaperone function for the MIER1 histone deacetylase complex” (bioRxiv, 2022).
Numbered stars: 1 amine (or outer) side, 2 acyl side, 3 side chain; on linkers, the order of the positions; unused ones are H or OH. Square brackets hold non-standard residues; d marks the D form. Ends that are not written are not given here. Lys(Me3) = C[N+](C)(C)CCCC[C@H](N)C(=O)O; Ethylenediamine = C(CN[*:2])N[*:1]; 5‑FAM = fluorescent label

T1: E. coli expressed BAHD1(aa:588-780) (UniProt Q8TBE0 588-780)
T1 construct: BAHD1, BAH domain, residues 588-780; also called BAH domain of BAHD1; source: E. coli expressed
T1 sequence (looked up): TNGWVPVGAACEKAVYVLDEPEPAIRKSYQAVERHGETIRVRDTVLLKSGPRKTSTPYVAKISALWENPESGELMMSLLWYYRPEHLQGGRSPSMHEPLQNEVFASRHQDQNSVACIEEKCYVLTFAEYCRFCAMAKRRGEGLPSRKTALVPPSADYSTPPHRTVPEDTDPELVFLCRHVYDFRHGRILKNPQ


Tests used:
[1] = biological target: T1, E. coli expressed BAHD1(aa:588-780); assay: fluorescence polarisation; 5 nM 5-FAM labelled histone peptide, BAHD1(aa:588-780) 0-142 uM, 25 mM Tris/Cl pH 7.5, 50 mM NaCl, 15 mins at 37 C; one-site binding model; conditions: both partners purified
[2] = biological target: T2, Full length HDAC1(aa:1-482) (UniProt Q13547 1-482); assay: co-IP + SEC; FLAG-tagged MIER1 construct co-expressed with untagged HDAC1 in HEK293F; anti-FLAG M2 resin, TEV cleavage, Superdex S200 in 25 mM Tris/HCl pH 7.5, 50 mM potassium acetate, 0.5 mM TCEP; SDS-PAGE, bands identified by MS; conditions: partners not purified
T2 construct: also called histone deacetylase 1
T2 sequence (Q13547 whole entry): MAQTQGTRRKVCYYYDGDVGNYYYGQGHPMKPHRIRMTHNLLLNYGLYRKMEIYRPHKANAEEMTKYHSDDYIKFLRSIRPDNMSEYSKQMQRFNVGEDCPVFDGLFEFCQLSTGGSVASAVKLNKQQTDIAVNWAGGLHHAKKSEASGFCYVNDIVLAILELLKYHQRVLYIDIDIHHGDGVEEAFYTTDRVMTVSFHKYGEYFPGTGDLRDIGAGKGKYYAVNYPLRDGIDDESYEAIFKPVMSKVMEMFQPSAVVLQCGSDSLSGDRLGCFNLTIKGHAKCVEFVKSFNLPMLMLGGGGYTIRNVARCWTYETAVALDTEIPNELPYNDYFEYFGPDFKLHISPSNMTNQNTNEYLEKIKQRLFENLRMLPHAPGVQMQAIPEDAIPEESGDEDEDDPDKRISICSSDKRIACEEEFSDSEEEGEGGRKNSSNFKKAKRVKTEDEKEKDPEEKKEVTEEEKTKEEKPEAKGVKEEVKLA

Binder | binding result [1] | binding result [2]
PRKQLATKAAR[Lys(Me3)]SAPATGG-{Ethylenediamine-4‑Abu-5‑FAM} (The twelfth letter (K27) is trimethyl-lysine; also called H3 histone tail bearing a K27me3 modification; source: synthetic peptide, bought: Cambridge Research Biochemicals) [H3 16-35 K27me3 peptide] | binds | –
FLAG-tagged MIER1(aa:171-350), ELM2-SANT domain (domain or fragment, human, UniProt Q8N108 171-350, looked up, Captured on anti-FLAG resin by the tag; the tag was then cut off by TEV protease before gel filtration and SEC-MALS (21 kDa counted for the fragment); also called MIER ELM2-SANT; source: HEK293F, co-transfected with HDAC1; anti-FLAG resin, TEV cleavage, Superdex S200; not shown: 10xHis-3xFLAG, N-terminal, kept) DYIPSEDWKKEIMVGSMFQAEIPVGICRYKENEKVYENDDQLLWDPEYLPEDKVIIFLKDASRRTGDEKGVEAIPEGSHIKDNEQALYELVKCNFDTEEALRRLRFNVKAAREELSVWTEEECRNFEQGLKAYGKDFHLIQANKVRTRSVGECVAFYYMWKKSERYDFFAQQTRFGKKKY | – | binds
